Experimental findings from IntAct's records for PubMed 22807449 are described below.

B1: Natural cytotoxicity triggering receptor 3 (Homo sapiens), O14931 (parent)
chain: MAWMLLLILIMVHPGSCALWVSQPPEIRTLEGSSAFLPCSFNASQGRLAIGSVTWFRDEVVPGKEVRNGTPEFRGRLAPLASSRFLHDHQAELHIRDVRGHDASIYVCRVEVLGLGVGTGNGTRLVVEKEHPQLGAGTVLLLRAGFYAVSFLSVAVGSTVYYQGKCLTWKGPRRQLPAVVPAPLPPPCGSSAHLLPPVPGG
partner: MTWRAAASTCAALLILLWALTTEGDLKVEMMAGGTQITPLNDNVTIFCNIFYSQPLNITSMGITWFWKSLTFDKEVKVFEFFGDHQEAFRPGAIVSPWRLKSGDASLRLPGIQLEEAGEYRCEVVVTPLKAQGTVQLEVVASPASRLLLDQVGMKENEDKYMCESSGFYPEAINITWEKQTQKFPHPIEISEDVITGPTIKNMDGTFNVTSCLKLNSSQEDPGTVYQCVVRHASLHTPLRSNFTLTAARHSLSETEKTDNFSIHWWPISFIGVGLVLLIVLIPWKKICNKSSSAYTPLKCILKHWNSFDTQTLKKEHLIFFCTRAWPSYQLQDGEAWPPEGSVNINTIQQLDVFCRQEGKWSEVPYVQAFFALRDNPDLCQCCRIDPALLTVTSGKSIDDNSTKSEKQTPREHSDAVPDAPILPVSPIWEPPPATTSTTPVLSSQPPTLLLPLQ
B2: Natural cytotoxicity triggering receptor 3 (Homo sapiens), O14931 (parent)
chain: B1 chain

Variants of B1 are the subject of one experiment. The settings on record: with nr3l1_human NCR3LG1, Q68D85.
For the variant MAWMLLLILIMVHPGSCALWVSQPPEIRTLEGSSAFLPCSFQASQGRLAIGSVTWFRDEVVPGKEVRQGTPEFRGRLAPLASSRFLHDHQAELHIRDVRGHDASIYVCRVEVLGLGVGTGNGTRLVVEKEHPQLGAGTVLLLRAGFYAVSFLSVAVGSTVYYQGKCLTWKGPRRQLPAVVPAPLPPPCGSSAHLLPPVPGG [N42Q;N68Q], the “effect of a mutation on the interaction” value is reported as “disrupting interaction strength”.

As to MAWMLLLILIMVHPGSCALWVSQPPEIRTLEGSSAFLPCSFQASQGRLAIGSVTWFRDEVVPGKEVRQGTPEFRGRLAPLASSRFLHDHQAELHIRDVRGHDASIYVCRVEVLGLGVGTGQGTRLVVEKEHPQLGAGTVLLLRAGFYAVSFLSVAVGSTVYYQGKCLTWKGPRRQLPAVVPAPLPPPCGSSAHLLPPVPGG [N42Q;N68Q;N121Q], the “effect of a mutation on the interaction” value is recorded as “disrupting interaction strength”. Same read-out and setting: with MAWMLLLILIMVHPGSCALWVSQPPEIRTLEGSSAFLPCSFQASQGRLAIGSVTWFRDEVVPGKEVRNGTPEFRGRLAPLASSRFLHDHQAELHIRDVRGHDASIYVCRVEVLGLGVGTGQGTRLVVEKEHPQLGAGTVLLLRAGFYAVSFLSVAVGSTVYYQGKCLTWKGPRRQLPAVVPAPLPPPCGSSAHLLPPVPGG [N42Q;N121Q] the entry was “disrupting interaction strength”; with MAWMLLLILIMVHPGSCALWVSQPPEIRTLEGSSAFLPCSFQASQGRLAIGSVTWFRDEVVPGKEVRNGTPEFRGRLAPLASSRFLHDHQAELHIRDVRGHDASIYVCRVEVLGLGVGTGNGTRLVVEKEHPQLGAGTVLLLRAGFYAVSFLSVAVGSTVYYQGKCLTWKGPRRQLPAVVPAPLPPPCGSSAHLLPPVPGG [N42Q], “disrupting interaction strength”. Turning to MAWMLLLILIMVHPGSCALWVSQPPEIRTLEGSSAFLPCSFNASQGRLAIGSVTWFRDEVVPGKEVRQGTPEFRGRLAPLASSRFLHDHQAELHIRDVRGHDASIYVCRVEVLGLGVGTGNGTRLVVEKEHPQLGAGTVLLLRAGFYAVSFLSVAVGSTVYYQGKCLTWKGPRRQLPAVVPAPLPPPCGSSAHLLPPVPGG [N68Q], the “effect of a mutation on the interaction” value is on record as “decreasing interaction strength”. In the case of MAWMLLLILIMVHPGSCALWVSQPPEIRTLEGSSAFLPCSFNASQGRLAIGSVTWFRDEVVPGKEVRNGTPEFRGRLAPLASSRFLHDHQAELHIRDVRGHDASIYVCRVEVLGLGVGTGQGTRLVVEKEHPQLGAGTVLLLRAGFYAVSFLSVAVGSTVYYQGKCLTWKGPRRQLPAVVPAPLPPPCGSSAHLLPPVPGG [N121Q], the “effect of a mutation on the interaction” value was “with no effect”.

As to MAWMLLLILIMVHPGSCALWVSQPPEIRTLEGSSAFLPCSFNASQGRLAIGSVTWFRDEVVPGKEVRQGTPEFRGRLAPLASSRFLHDHQAELHIRDVRGHDASIYVCRVEVLGLGVGTGQGTRLVVEKEHPQLGAGTVLLLRAGFYAVSFLSVAVGSTVYYQGKCLTWKGPRRQLPAVVPAPLPPPCGSSAHLLPPVPGG [N68Q;N121Q], the “effect of a mutation on the interaction” value was “decreasing interaction strength”.

In a further experiment the parent is B2. Particulars: with bag6_human BAG6, P46379.
Chain of bag6_human BAG6, P46379 (P46379 whole entry): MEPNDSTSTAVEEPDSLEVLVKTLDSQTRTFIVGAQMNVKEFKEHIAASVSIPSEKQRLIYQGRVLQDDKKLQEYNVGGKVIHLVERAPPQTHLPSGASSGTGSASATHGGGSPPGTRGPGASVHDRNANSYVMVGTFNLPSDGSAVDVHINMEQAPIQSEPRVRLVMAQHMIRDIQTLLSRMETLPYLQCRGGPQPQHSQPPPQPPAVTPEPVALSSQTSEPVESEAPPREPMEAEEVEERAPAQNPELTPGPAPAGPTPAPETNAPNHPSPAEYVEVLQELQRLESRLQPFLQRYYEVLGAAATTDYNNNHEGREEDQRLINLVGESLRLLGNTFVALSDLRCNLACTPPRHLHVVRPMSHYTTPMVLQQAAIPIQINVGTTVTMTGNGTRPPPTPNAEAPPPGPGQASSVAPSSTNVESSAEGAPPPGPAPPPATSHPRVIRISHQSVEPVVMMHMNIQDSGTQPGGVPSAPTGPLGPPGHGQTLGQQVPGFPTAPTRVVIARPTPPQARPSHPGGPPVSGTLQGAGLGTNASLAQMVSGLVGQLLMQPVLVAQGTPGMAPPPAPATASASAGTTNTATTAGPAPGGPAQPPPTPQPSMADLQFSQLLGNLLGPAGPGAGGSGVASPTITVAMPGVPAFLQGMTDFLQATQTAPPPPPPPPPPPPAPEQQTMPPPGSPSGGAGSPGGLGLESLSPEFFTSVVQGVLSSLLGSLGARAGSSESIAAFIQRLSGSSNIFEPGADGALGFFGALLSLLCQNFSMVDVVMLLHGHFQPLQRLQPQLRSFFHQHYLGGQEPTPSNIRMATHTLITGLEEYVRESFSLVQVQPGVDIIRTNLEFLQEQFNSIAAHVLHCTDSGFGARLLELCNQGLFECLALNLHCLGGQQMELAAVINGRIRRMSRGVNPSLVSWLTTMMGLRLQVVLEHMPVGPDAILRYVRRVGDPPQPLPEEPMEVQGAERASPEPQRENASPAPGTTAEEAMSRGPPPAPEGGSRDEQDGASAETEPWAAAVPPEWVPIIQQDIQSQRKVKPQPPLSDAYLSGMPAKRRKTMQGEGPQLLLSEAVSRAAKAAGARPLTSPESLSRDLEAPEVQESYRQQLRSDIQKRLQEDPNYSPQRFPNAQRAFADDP
Turning to MAWMLLLILIMVHPGSCALWVSQPPEIRTLEGSSAFLPCSFQASQGRLAIGSVTWFRDEVVPGKEVRQGTPEFRGRLAPLASSRFLHDHQAELHIRDVRGHDASIYVCRVEVLGLGVGTGNGTRLVVEKEHPQLGAGTVLLLRAGFYAVSFLSVAVGSTVYYQGKCLTWKGPRRQLPAVVPAPLPPPCGSSAHLLPPVPGG [N42Q;N68Q], the “effect of a mutation on the interaction” value is listed as “with no effect”. For the variant MAWMLLLILIMVHPGSCALWVSQPPEIRTLEGSSAFLPCSFQASQGRLAIGSVTWFRDEVVPGKEVRQGTPEFRGRLAPLASSRFLHDHQAELHIRDVRGHDASIYVCRVEVLGLGVGTGQGTRLVVEKEHPQLGAGTVLLLRAGFYAVSFLSVAVGSTVYYQGKCLTWKGPRRQLPAVVPAPLPPPCGSSAHLLPPVPGG [N42Q;N68Q;N121Q], the “effect of a mutation on the interaction” value was “with no effect”. MAWMLLLILIMVHPGSCALWVSQPPEIRTLEGSSAFLPCSFNASQGRLAIGSVTWFRDEVVPGKEVRQGTPEFRGRLAPLASSRFLHDHQAELHIRDVRGHDASIYVCRVEVLGLGVGTGNGTRLVVEKEHPQLGAGTVLLLRAGFYAVSFLSVAVGSTVYYQGKCLTWKGPRRQLPAVVPAPLPPPCGSSAHLLPPVPGG [N68Q]: the “effect of a mutation on the interaction” value was “with no effect”.

MAWMLLLILIMVHPGSCALWVSQPPEIRTLEGSSAFLPCSFQASQGRLAIGSVTWFRDEVVPGKEVRNGTPEFRGRLAPLASSRFLHDHQAELHIRDVRGHDASIYVCRVEVLGLGVGTGQGTRLVVEKEHPQLGAGTVLLLRAGFYAVSFLSVAVGSTVYYQGKCLTWKGPRRQLPAVVPAPLPPPCGSSAHLLPPVPGG [N42Q;N121Q]: the “effect of a mutation on the interaction” value is recorded as “with no effect”. On to MAWMLLLILIMVHPGSCALWVSQPPEIRTLEGSSAFLPCSFNASQGRLAIGSVTWFRDEVVPGKEVRQGTPEFRGRLAPLASSRFLHDHQAELHIRDVRGHDASIYVCRVEVLGLGVGTGQGTRLVVEKEHPQLGAGTVLLLRAGFYAVSFLSVAVGSTVYYQGKCLTWKGPRRQLPAVVPAPLPPPCGSSAHLLPPVPGG [N68Q;N121Q], for which the “effect of a mutation on the interaction” value was “with no effect”. MAWMLLLILIMVHPGSCALWVSQPPEIRTLEGSSAFLPCSFNASQGRLAIGSVTWFRDEVVPGKEVRNGTPEFRGRLAPLASSRFLHDHQAELHIRDVRGHDASIYVCRVEVLGLGVGTGQGTRLVVEKEHPQLGAGTVLLLRAGFYAVSFLSVAVGSTVYYQGKCLTWKGPRRQLPAVVPAPLPPPCGSSAHLLPPVPGG [N121Q]: the “effect of a mutation on the interaction” value was “with no effect”. Same read-out and setting: with MAWMLLLILIMVHPGSCALWVSQPPEIRTLEGSSAFLPCSFQASQGRLAIGSVTWFRDEVVPGKEVRNGTPEFRGRLAPLASSRFLHDHQAELHIRDVRGHDASIYVCRVEVLGLGVGTGNGTRLVVEKEHPQLGAGTVLLLRAGFYAVSFLSVAVGSTVYYQGKCLTWKGPRRQLPAVVPAPLPPPCGSSAHLLPPVPGG [N42Q] the entry was “with no effect”.
